From publication PMC12003248, “ERCC6L2 mitigates replication stress and promotes centromere stability” (Cell Reports, 2023)
Where no end group is shown, it is not given here.

B1: Biotinylated aPIP ERCC6L2 peptide (residues 790–811) (peptide, UniProt Q5T890 790-811, looked up)
peptide: SKASSSPGQLTLLQCGFSKLLE
modifications: also: biotin, position not given here
notes: ERCC6L2, human, residues 790-811, wild-type atypical PIP-box (consensus Q-[FL]-x-L-x-Q-C-G-[FL]); also called ERCC6L2 aPIP; biotinylated ERCC6L2^790−811 peptide; source: synthetic peptide (Genscript)
B2: GST-tagged ERCC6L2^753−819 fragment (domain or fragment, human, UniProt Q5T890 753-819, looked up)
chain: AAEPLAKEACDLCSDFSDEEPVGATGIKTAKNKAPDSSKASSSPGQLTLLQCGFSKLLETKCKAVED
B3: ERCC6L2^795−816 aPIP peptide (peptide, UniProt Q5T890 795-816, looked up)
peptide: SPGQLTLLQCGFSKLLETKCKA
notes: ERCC6L2, human, residues 795-816, atypical PIP-box; Used for ITC and for co-crystallisation with PCNA; also called ERCC6L2 aPIP peptide; aPIP(ERCC6L2); source: synthetic peptide (Genscript)
B4: 820–1,098: C-terminal YFP-ERCC6L2 fragment (protein, UniProt Q5T890 820-1098, looked up, fragment)
chain: SDEQPTCLSTEAKDAGCEKNQDSLGTSKHQKLDNILNPKEKHIFYKSEKILEQNISSKSDEKKIKNTDKHCILQNVTESEDSDVICPTQYTTERFPDNSIRFKPPLEGSEDSETEHTVKTRNNDNSRNTDDKRNGIISKKLSPENTTLKSILKRKGTSDISDESDDIEISSKSRVRKRASSLRFKRIKETKKELHNSPKTMNKTNQVYAANEDHNSQFIDDYSSSDESLSVSHFSFSKQSHRPRTIRDRTSFSSKLPSHNKKNSTFIPRKPMKCSNEKV
modifications: YFP tag
notes: C-terminal YFP-ERCC6L2 fragment
B5: 880–1,098: C-terminal YFP-ERCC6L2 fragment (protein, UniProt Q5T890 880-1098, looked up, fragment)
chain: EKKIKNTDKHCILQNVTESEDSDVICPTQYTTERFPDNSIRFKPPLEGSEDSETEHTVKTRNNDNSRNTDDKRNGIISKKLSPENTTLKSILKRKGTSDISDESDDIEISSKSRVRKRASSLRFKRIKETKKELHNSPKTMNKTNQVYAANEDHNSQFIDDYSSSDESLSVSHFSFSKQSHRPRTIRDRTSFSSKLPSHNKKNSTFIPRKPMKCSNEKV
modifications: YFP tag
notes: as for B4
B6: ERCC6L2^701−1247: C-terminal ERCC6L2 fragment (protein, UniProt Q5T890 701-1247, looked up, fragment)
chain: REGQVEAGIMTATTWLKEGPPAHKLEMPRQPDCQECRGTEQAAEPLAKEACDLCSDFSDEEPVGATGIKTAKNKAPDSSKASSSPGQLTLLQCGFSKLLETKCKAVEDSDGNTASDDESSDEQPTCLSTEAKDAGCEKNQDSLGTSKHQKLDNILNPKEKHIFYKSEKILEQNISSKSDEKKIKNTDKHCILQNVTESEDSDVICPTQYTTERFPDNSIRFKPPLEGSEDSETEHTVKTRNNDNSRNTDDKRNGIISKKLSPENTTLKSILKRKGTSDISDESDDIEISSKSRVRKRASSLRFKRIKETKKELHNSPKTMNKTNQVYAANEDHNSQFIDDYSSSDESLSVSHFSFSKQSHRPRTIRDRTSFSSKLPSHNKKNSTFIPRKPMKCSNEKVVNQEQSYESMDKFLDGVQEVAYIHSNQNVIGSSKAENHMSRWAAHDVFELKQFSQLPANIAVCSSKTYKEKVDADTLPHTKKGQQPSEGSISLPLYISNPVNQKKKKVYHTNQTTFIIGETPKGIRRKQFEEMASYFNSSSVNEFAKHI
modifications: YFP tag
notes: C-terminal ERCC6L2 fragment
B7: 701–1,098: C-terminal YFP-ERCC6L2 fragment (protein, UniProt Q5T890 701-1098, looked up, fragment)
chain: REGQVEAGIMTATTWLKEGPPAHKLEMPRQPDCQECRGTEQAAEPLAKEACDLCSDFSDEEPVGATGIKTAKNKAPDSSKASSSPGQLTLLQCGFSKLLETKCKAVEDSDGNTASDDESSDEQPTCLSTEAKDAGCEKNQDSLGTSKHQKLDNILNPKEKHIFYKSEKILEQNISSKSDEKKIKNTDKHCILQNVTESEDSDVICPTQYTTERFPDNSIRFKPPLEGSEDSETEHTVKTRNNDNSRNTDDKRNGIISKKLSPENTTLKSILKRKGTSDISDESDDIEISSKSRVRKRASSLRFKRIKETKKELHNSPKTMNKTNQVYAANEDHNSQFIDDYSSSDESLSVSHFSFSKQSHRPRTIRDRTSFSSKLPSHNKKNSTFIPRKPMKCSNEKV
modifications: YFP tag
notes: as for B4
B8: YFP-ERCC6L2^1053−1247: YFP-tagged C-terminal ERCC6L2 fragment (protein, UniProt Q5T890 1053-1247, looked up, fragment)
chain: FSFSKQSHRPRTIRDRTSFSSKLPSHNKKNSTFIPRKPMKCSNEKVVNQEQSYESMDKFLDGVQEVAYIHSNQNVIGSSKAENHMSRWAAHDVFELKQFSQLPANIAVCSSKTYKEKVDADTLPHTKKGQQPSEGSISLPLYISNPVNQKKKKVYHTNQTTFIIGETPKGIRRKQFEEMASYFNSSSVNEFAKHI
modifications: YFP tag
notes: YFP-tagged C-terminal ERCC6L2 fragment
B9: 728–1,098: C-terminal YFP-ERCC6L2 fragment (protein, UniProt Q5T890 728-1098, looked up, fragment)
chain: PRQPDCQECRGTEQAAEPLAKEACDLCSDFSDEEPVGATGIKTAKNKAPDSSKASSSPGQLTLLQCGFSKLLETKCKAVEDSDGNTASDDESSDEQPTCLSTEAKDAGCEKNQDSLGTSKHQKLDNILNPKEKHIFYKSEKILEQNISSKSDEKKIKNTDKHCILQNVTESEDSDVICPTQYTTERFPDNSIRFKPPLEGSEDSETEHTVKTRNNDNSRNTDDKRNGIISKKLSPENTTLKSILKRKGTSDISDESDDIEISSKSRVRKRASSLRFKRIKETKKELHNSPKTMNKTNQVYAANEDHNSQFIDDYSSSDESLSVSHFSFSKQSHRPRTIRDRTSFSSKLPSHNKKNSTFIPRKPMKCSNEKV
modifications: YFP tag
notes: as for B4
B10: 797–1,098: C-terminal YFP-ERCC6L2 fragment (protein, UniProt Q5T890 797-1098, looked up, fragment)
chain: KLLETKCKAVEDSDGNTASDDESSDEQPTCLSTEAKDAGCEKNQDSLGTSKHQKLDNILNPKEKHIFYKSEKILEQNISSKSDEKKIKNTDKHCILQNVTESEDSDVICPTQYTTERFPDNSIRFKPPLEGSEDSETEHTVKTRNNDNSRNTDDKRNGIISKKLSPENTTLKSILKRKGTSDISDESDDIEISSKSRVRKRASSLRFKRIKETKKELHNSPKTMNKTNQVYAANEDHNSQFIDDYSSSDESLSVSHFSFSKQSHRPRTIRDRTSFSSKLPSHNKKNSTFIPRKPMKCSNEKV
modifications: YFP tag
notes: as for B4

What was measured:
His-tagged human PCNA [1] = biological target: T1, His-tagged human PCNA (human, UniProt P12004 1-261); assay: pull-down; biotinylated peptides immobilised on magnetic streptavidin beads, incubated with purified His-tagged PCNA 1 h at 4°C in 50 mM Tris-HCl pH 8, 150 mM NaCl, 1 mM DTT, 0.2% Triton X-; anti-PCNA Western blot; conditions: both partners purified
T1 construct: PCNA, human; cloned into the NdeI and XhoI sites of pET28a for the protein with N-terminal His-tag; The ITC methods say only 'PCNA'; the paragraph on purification of His-tagged PCNA describes the preparation for ITC; also called recombinant PCNA; source: E. coli Rosetta (pET28a), purified (Ni-NTA, Q-sepharose, Superdex S-200); not shown: His-tag, N-terminal, kept

His-tagged human PCNA [2] = biological target: T1, His-tagged human PCNA; assay: pull-down; GST-tagged ERCC6L2 753-819 immobilised on GST-beads, incubated with purified His-tagged PCNA 1 h at 4°C in 50 mM Tris-HCl pH 8, 150 mM NaCl, 1 mM DTT, 0.2% Triton X-; Western blot against PCNA; conditions: both partners purified
His-tagged human PCNA [3] = biological target: T1, His-tagged human PCNA; assay: ITC; 25°C, PBS with 1 mM β-mercaptoethanol; 15 μM PCNA in the chamber, 215 μM ERCC6L2 aPIP peptide injected in 20 steps of 2 μL; single set of independent binding sites model; conditions: both partners purified
U2OS cells = assay: Nuclear patterns resembling replication foci of YFP-ERCC6L2 truncations; type: cell-based, human; conditions: YFP-tagged fragments
Source text: Figure 4 ERCC6L2 contains an atypical PCNA-binding motif (A) ERCC6L2 colocalizes with PCNA at CENP-C-negative foci. U2OS cells transfected with YFP-ERCC6L2 were stained for CENP-C and PCNA after pre-extraction of soluble proteins. ERCC6L2-and PCNA-positive, but CENP-C negative foci (red arrows) are marked in zoomed images. (B) ERCC6L2 colocalizes with RPA at CENP-C-negative foci. U2OS cells transfected with YFP-ERCC6L2 were stained for CENP-C and RPA. ERCC6L2- and RPA-positive, but CENP-C-negative foci (red arrows) are marked in zoomed images. (C) Colocalization of the C-terminal ERCC6L2^701−1561 fragment with endogenous PCNA. (D) PCNA pull-down with biotinylated peptides. Biotinylated PIP-box and APIM motif peptides were bound to streptavidin beads and incubated with recombinant PCNA. Interactions were assayed by western blotting with PCNA antibody. Wild-type ZRANB3 PIP-box peptide (ZRANB3 PIP) was used as a positive control. Mutant ZRANB3 PIP-box peptide (Q519A, F525A, and F526A, ZRANB3 PIP^∗) served as a negative control. ERCC6L2 aPIP and ERCC6L2 aPIP^∗ denote atypical ERCC6L2 peptides (residues 790–811) containing the WT and the Q798A mutant sequences, respectively. (E) Expression patterns of the indicated C-terminal YFP-ERCC6L2 constructs. […] (F) PCNA pull-down with GST-tagged peptides. Wild-type and Q798A mutant versions of the GST-tagged ERCC6L2 fragments (residues 753–819) were immobilized on GST beads (shown on the left) and incubated with recombinant PCNA. Interactions were assessed by western blotting against PCNA (shown on the right). (G) Schematic representation of different ERCC6L2 fragments tested for formation of PCNA-like foci. A region at the N terminus of fragment 701–1,098 is zoomed below to show sequence alignment of different ERCC6L2 proteins. The conserved atypical PIP-box is marked in a green frame. Targeted mutation sites are indicated by red arrows. (H) Colocalization of YFP-ERCC6L2 wild type, ATPase dead K165 ERCC6L2, and aPIP^∗ mutant (Q798A, C804A, F806A) with CENP-A. N(cells) > 1,400. (I) Colocalization of YFP-ERCC6L2 wild type, ATPase dead K165 ERCC6L2, and aPIP^∗ mutant (Q798A, C804A, F806A) with CENP-B. N(cells) > 1,000. (J) Front and side views of the PCNA ring (white surface and ribbons) with the ERCC6L2 aPIP-box peptide (green sticks). (K) Overview of the hydrogen-bond interaction network between the ERCC6L2 aPIP-box peptide (green) and PCNA (white). Hydrogen bonds are shown as yellow dotted lines. (L) Hydrophobic pocket on PCNA surface (white) with conserved residues that form “hydrophobic plug” (Leu801, Cys804, and Phe806; shown as green sticks) in the ERCC6L2 aPIP-box peptide. (M) Magnified view of the boxed region in (I). (N) Magnified view of the hydrogen-bond interaction network between the ERCC6L2 aPIP-box peptide (green) and PCNA (white, labels in italics). Hydrogen bonds are shown as yellow dotted lines. Intramolecular hydrogen bonds between ERCC6L2 aPIP-box residues are also shown. (H) and (I) Box and whisker plots. […] (A), (B), (C), (E) Scale bar, 5 μm.
U2OS cells (ATCC) were grown in 24 well plates. Where indicated, cells were transfected with the YFP constructs […] with siRNAs. […] Samples were analyzed by confocal microscopy using Olympus FV1200 or Zeiss 880 Airyscan microscopes, or using EVOS M7000 Imaging System.

endogenous PCNA = assay: Colocalization of YFP-ERCC6L2 constructs with endogenous PCNA; type: cell-based, human; conditions: YFP-tagged, U2OS cells
Source text: Figure 4 ERCC6L2 contains an atypical PCNA-binding motif (A) ERCC6L2 colocalizes with PCNA at CENP-C-negative foci. U2OS cells transfected with YFP-ERCC6L2 were stained for CENP-C and PCNA after pre-extraction of soluble proteins. ERCC6L2-and PCNA-positive, but CENP-C negative foci (red arrows) are marked in zoomed images. (B) ERCC6L2 colocalizes with RPA at CENP-C-negative foci. U2OS cells transfected with YFP-ERCC6L2 were stained for CENP-C and RPA. ERCC6L2- and RPA-positive, but CENP-C-negative foci (red arrows) are marked in zoomed images. (C) Colocalization of the C-terminal ERCC6L2^701−1561 fragment with endogenous PCNA. (D) PCNA pull-down with biotinylated peptides. Biotinylated PIP-box and APIM motif peptides were bound to streptavidin beads and incubated with recombinant PCNA. Interactions were assayed by western blotting with PCNA antibody. Wild-type ZRANB3 PIP-box peptide (ZRANB3 PIP) was used as a positive control. Mutant ZRANB3 PIP-box peptide (Q519A, F525A, and F526A, ZRANB3 PIP^∗) served as a negative control. […] Interactions were assessed by western blotting against PCNA (shown on the right). […]
U2OS cells (ATCC) were grown in 24 well plates. […] Samples were analyzed by confocal microscopy using Olympus FV1200 or Zeiss 880 Airyscan microscopes, or using EVOS M7000 Imaging System. […]

CENP-A = assay: Colocalization of YFP-ERCC6L2 constructs with CENP-A; type: cell-based, human; conditions: U2OS cells; N(cells) > 1,400 for mutants

T1 sequence (P12004 whole entry): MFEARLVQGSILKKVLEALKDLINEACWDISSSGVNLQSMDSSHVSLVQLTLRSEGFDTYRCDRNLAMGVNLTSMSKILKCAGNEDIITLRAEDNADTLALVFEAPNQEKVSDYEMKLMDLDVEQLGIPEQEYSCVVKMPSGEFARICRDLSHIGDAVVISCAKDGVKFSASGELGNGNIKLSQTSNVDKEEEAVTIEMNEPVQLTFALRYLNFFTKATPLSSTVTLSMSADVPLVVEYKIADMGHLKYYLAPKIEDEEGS

Row | Molecule | nuclear pattern resembling replication foci (U2OS cells) | other results
1 | B1 |  | binding result (His-tagged human PCNA [1]): binds
2 | B2 |  | binding result (His-tagged human PCNA [2]): binds
3 | B3 |  | Kd (His-tagged human PCNA [3]): ~6 µM
4 | B4 | do not | 
5 | B5 | do not | 
6 | B6 |  | colocalization with endogenous PCNA (endogenous PCNA): efficiently colocalized with endogenous PCNA
7 | B7 | show patterns reminiscent of replication foci | 
8 | B8 |  | colocalization with CENP-A (CENP-A): formed foci marked by the CENP-A protein
9 | B9 | show patterns reminiscent of replication foci | 
10 | B10 | show patterns reminiscent of replication foci | 
